These results are taken from US9346889 (MEDIAPHARMA S R L, dated 2016).

Numbering of substitutions follows the chain as printed.

Test [1] concerns the target T1, human ErbB3 receptor (human, UniProt P21860 20-1342).
T1 construct: whole, on cells; also called HER-3; HER3
As to the kind of experiment: immunofluorescence on IR-8 human melanoma cells, 10 ug/ml, on ice.

Test [2] concerns the target T1, human ErbB3 receptor. Kind of test: immunofluorescence on IR-8 human melanoma cells. The method, then:
IR-8 human melanoma cells were maintained on ice for 30 minutes in the presence of 10 µg/ml of chimeric (cMP-RM-1 #1) or humanized (hMP-RM-1 #6, hMP-RM-1 #10, hMP-RM-1 #20) MP-RM-1 antibody variants and then returned to 37° C. for 60 minutes. Cells were harvested and stained with a fluorescein-labeled goat anti-human IgG antibody and analyzed by FACS.

The target in test [3] is T1, human ErbB3 receptor. As to the kind of experiment: hybridoma screening; reactivity with NIH/3T3 cells transfected with human ErbB3. As for the experimental part:
Four-weeks old Balb/c mice were immunized by intraperitoneal injection of live NIH/3T3 cells transfected with the human ErbB3 receptor. Seven days later, mice were given an additional intraperitoneal injection of the immunogen. After additional seven days, mice were boosted intravenously with the immunogen, and spleens were removed for cell fusion 3 days later. Somatic cell hybrids were prepared by fusion of immune splenocytes with the murine nonsecreting myeloma cell line NS-1. Hybridoma supernatants were selected on the basis of differential reactivity with LTR-ErbB3 transfected cells, but not with LTR-neo NIH/3T3. All positive hybridoma cell colonies were cloned twice by limiting dilution and further characterized.

T1 sequence (P21860 20-1342): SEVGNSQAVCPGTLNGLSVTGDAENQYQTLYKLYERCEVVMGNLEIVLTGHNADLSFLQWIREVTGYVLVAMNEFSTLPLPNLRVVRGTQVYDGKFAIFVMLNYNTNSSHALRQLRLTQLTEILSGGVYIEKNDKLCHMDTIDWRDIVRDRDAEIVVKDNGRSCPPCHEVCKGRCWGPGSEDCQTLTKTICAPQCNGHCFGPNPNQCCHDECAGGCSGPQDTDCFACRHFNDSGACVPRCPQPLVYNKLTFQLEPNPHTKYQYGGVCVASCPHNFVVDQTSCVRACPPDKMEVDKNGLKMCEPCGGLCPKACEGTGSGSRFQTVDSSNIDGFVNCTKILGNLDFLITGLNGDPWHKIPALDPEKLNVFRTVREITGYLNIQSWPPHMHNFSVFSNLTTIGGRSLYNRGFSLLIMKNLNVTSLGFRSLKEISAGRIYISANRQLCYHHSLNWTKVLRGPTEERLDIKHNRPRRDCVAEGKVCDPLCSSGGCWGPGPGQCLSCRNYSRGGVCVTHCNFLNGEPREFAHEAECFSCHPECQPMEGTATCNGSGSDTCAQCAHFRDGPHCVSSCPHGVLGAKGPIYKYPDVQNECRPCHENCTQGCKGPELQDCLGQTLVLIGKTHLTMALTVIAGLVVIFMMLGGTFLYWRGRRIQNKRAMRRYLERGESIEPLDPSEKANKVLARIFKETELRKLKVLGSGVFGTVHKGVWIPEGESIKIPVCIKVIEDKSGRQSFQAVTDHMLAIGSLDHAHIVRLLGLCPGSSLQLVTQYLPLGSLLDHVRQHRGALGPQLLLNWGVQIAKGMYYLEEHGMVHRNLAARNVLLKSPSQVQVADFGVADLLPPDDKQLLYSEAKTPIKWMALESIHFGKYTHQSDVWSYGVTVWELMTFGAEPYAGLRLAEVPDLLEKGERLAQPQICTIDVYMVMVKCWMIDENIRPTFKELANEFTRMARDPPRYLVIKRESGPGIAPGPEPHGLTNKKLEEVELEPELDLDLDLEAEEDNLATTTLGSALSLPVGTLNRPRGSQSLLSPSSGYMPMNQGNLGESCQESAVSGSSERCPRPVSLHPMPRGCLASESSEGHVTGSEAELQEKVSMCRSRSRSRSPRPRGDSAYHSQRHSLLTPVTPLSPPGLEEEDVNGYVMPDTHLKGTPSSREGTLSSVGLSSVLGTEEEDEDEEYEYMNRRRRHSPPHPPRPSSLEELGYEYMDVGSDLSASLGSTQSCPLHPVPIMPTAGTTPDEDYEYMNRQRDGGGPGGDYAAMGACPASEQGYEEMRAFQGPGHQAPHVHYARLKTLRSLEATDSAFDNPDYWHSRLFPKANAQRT

B1: hMP-RM-1 #6 (antibody, human IgG1, kappa, V domains shown)
VH: DVQLVESGGGLVQPGGSLRLSCAASGFTFSTYGMSWVRQTPDKRLEWVATISHGDGYTYYPDSVKGRFTISRDNAKNTLYLQMSSLKSEDTAMYYCARHGDYDDDYYAMDYWGQGTLVTVSS
VL: DIQMTQSPSSLSASVGDRVTITCKSSQSLLNSGNQKNYLTWYQQKPGKAPKLLIYWASTRESGVPSRFSGSGSGTDFTLTISSLQPEDFATYYCQNEYTYPLTFGQGTKVEIKR
notes: Humanized IgG1/kappa, from CHO-S cells; also called humanized MP-RM-1 #6; humanized MP-RM-1#6
Consider B1, for which the binding result in test [1] is “binds”.

B2: hMP-RM-1 #10 (antibody, human IgG1, kappa, V domains shown)
VH: B1 VH with A24V, T40A, D42G, R44G, A75S, S84N, K87R, S88A, M93V
VL: B1 VL
notes: Humanized IgG1/kappa, from CHO-S cells
B2: in test [2], the binding result is “binds”.

B3: monoclonal antibody MP-RM-1 (antibody, V domains shown)
VH: DVQLVESGGDLVKPGGSLKLSCVVSGFTFSTYGMSWVRQTPDRRLEWVATISHGDGYTYYPDSVKGRFTISRDNAKNTLHLQMSSLKSEDTAMYYCARHGDYDDDYYAMDYWGQGTSVTVS
VL: DIVMTQSPSSLTVIAGEKVTMSCKSSQSLLNSGNQKNYLTWYQQKPGQPPKLLIYWASTRESGVPDRFTGSGSGTDFTLTISSVQAEDLAVYYCQNEYTYPLTFGAGTKLELKR
notes: Murine IgG2a from hybridoma DSM ACC3018; also called DSM ACC3018
B3: the binding result in test [3] is listed as “binds”.

B4: cMP-RM-1 #1 (antibody, human IgG1, kappa, V domains shown)
VH: B1 VH with G10D, Q13K, R19K, A23V, A24V, K43R, Y80H, L117S, V120F
VL: B3 VL with L112I
notes: Chimeric human IgG1/kappa, from CHO-S cells; Signal peptide left out; also called chimeric variant cMP-RM-1 #1
With B4, the binding result in test [2] was “binds”.

B5: hMP-RM-1 #20 (antibody, human IgG1, kappa, V domains shown)
VH: B1 VH with G10D, Q13K, R19K, A23V, K43R, Y80H, L117T
VL: B3 VL with I14S, A15L, K18R, V19A, T69S, L89V, A106G
notes: as for B2
B5: in test [2], the binding result was “binds”.
